Measured values reported in publication PMC9482650, “Quantitative fragmentomics allow affinity mapping of interactomes” (Nature Communications, 2022).

Experiments:
Experiment in all cases: holdup assay
Set-up in all cases: key: below the threshold = too weak to quantify, mostly under pKd 3.1 to 4
[1] = biological target: GRIP2_3, Q9C0E4
[2] = biological target: SCRIB_3, Q14160
[3] = biological target: DLG4_2, P78352
[4] = biological target: T1, MPP7, Q5T2T1
T1 sequence (Q5T2T1 134-230, limits assumed, looked up): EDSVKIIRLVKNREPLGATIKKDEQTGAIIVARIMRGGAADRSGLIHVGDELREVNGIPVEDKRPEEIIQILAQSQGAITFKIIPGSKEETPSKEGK

[5] = biological target: T2, APBA1_2, Q02410
T2 sequence (Q02410 742-832, limits assumed, looked up): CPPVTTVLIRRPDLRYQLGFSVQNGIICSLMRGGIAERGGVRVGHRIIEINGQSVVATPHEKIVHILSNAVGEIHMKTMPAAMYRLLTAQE

[6] = biological target: GRIP2_6, Q9C0E4
GRIP2_6, Q9C0E4, sequence (Q9C0E4 648-740): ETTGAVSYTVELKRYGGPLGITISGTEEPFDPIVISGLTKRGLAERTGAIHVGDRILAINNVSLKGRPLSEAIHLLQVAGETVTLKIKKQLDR

[7] = biological target: T3, MPP2, Q14168
T3 sequence (Q14168 180-250, limits assumed, looked up): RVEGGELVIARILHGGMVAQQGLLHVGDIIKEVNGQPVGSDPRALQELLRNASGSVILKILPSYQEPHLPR

[8] = biological target: T4, ARHGAP21, Q5T5U3
T4 sequence (Q5T5U3 45-169, limits assumed, looked up): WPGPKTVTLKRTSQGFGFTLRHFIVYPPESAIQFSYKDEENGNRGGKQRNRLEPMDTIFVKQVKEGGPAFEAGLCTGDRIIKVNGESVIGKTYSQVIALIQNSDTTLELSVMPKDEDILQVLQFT

[9] = biological target: IL16_3, Q14005
IL16_3, Q14005, sequence (Q14005 1107-1207): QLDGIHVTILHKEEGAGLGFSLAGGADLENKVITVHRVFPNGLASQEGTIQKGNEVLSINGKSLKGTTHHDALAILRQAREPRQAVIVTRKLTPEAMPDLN

[10] = biological target: LNX1_3, Q8TBB1
LNX1_3, Q8TBB1, sequence (Q8TBB1 500-596): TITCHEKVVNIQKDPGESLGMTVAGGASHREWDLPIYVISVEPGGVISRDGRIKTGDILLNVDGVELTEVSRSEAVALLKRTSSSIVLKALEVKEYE

[11] = biological target: TJP1_3, Q07157
TJP1_3, Q07157, sequence (Q07157 416-512): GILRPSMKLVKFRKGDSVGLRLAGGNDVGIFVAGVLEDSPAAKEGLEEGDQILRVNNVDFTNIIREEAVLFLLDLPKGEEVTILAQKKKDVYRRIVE

[12] = biological target: LNX1_1, Q8TBB1
LNX1_1, Q8TBB1, sequence (Q8TBB1 261-371): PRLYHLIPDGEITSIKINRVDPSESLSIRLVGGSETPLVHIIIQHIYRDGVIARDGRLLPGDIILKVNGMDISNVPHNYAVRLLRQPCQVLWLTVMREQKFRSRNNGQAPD

[13] = biological target: FRMPD4, Q14CM0
FRMPD4, Q14CM0, sequence (Q14CM0 67-160): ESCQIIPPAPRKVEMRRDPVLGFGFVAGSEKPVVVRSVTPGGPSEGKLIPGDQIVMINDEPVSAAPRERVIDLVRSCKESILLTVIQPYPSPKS

[14] = biological target: T5, PCLO, Q9Y6V0
T5 sequence (Q9Y6V0 4491-4600, limits assumed, looked up): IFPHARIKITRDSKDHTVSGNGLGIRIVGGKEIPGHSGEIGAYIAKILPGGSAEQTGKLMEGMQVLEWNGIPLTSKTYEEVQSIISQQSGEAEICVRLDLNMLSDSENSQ

[15] = biological target: PTPN3, P26045
PTPN3, P26045, sequence (P26045 505-587): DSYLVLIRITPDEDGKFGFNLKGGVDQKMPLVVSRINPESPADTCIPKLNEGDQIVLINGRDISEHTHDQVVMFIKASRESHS

[16] = biological target: MAGI2_5, Q86UL8
MAGI2_5, Q86UL8, sequence (Q86UL8 915-1017): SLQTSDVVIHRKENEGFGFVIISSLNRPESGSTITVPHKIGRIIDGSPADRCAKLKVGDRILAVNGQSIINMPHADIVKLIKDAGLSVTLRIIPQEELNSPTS

[17] = biological target: GRIP2_5, Q9C0E4
GRIP2_5, Q9C0E4, sequence (Q9C0E4 544-642): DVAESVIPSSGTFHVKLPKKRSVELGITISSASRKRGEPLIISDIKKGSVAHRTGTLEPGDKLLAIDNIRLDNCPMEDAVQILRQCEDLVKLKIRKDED

[18] = biological target: MAGI2_4, Q86UL8
MAGI2_4, Q86UL8, sequence (Q86UL8 772-865): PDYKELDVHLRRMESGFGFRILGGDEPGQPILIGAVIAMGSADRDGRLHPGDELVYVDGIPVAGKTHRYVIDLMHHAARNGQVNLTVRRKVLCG

[19] = biological target: T6, PDZRN3_1, Q9UPQ7
T6 sequence (Q9UPQ7 244-349, limits assumed, looked up): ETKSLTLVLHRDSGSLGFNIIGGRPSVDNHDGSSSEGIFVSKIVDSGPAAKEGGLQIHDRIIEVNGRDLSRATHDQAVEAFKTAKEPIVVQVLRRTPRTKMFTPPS

[20] = biological target: T7, NHERF3_1, Q5T2W1
T7 sequence (Q5T2W1 4-100, limits assumed, looked up): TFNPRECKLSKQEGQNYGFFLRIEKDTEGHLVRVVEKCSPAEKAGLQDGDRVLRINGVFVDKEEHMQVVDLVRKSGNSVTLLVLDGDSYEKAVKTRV

[21] = biological target: DLG1_1, Q12959
[22] = biological target: T8, APBA2_2, Q99767
T8 sequence (Q99767 654-744, limits assumed, looked up): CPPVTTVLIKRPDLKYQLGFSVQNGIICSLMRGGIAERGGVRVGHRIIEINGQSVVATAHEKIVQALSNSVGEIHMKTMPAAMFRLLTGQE

[23] = biological target: GRID2IP_2, A4D2P6
GRID2IP_2, A4D2P6, sequence (A4D2P6 272-370): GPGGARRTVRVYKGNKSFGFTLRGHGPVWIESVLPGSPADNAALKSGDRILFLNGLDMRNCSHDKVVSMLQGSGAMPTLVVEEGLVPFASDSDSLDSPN

[24] = biological target: T9, LNX2_3, Q8N448
T9 sequence (Q8N448 463-564, limits assumed, looked up): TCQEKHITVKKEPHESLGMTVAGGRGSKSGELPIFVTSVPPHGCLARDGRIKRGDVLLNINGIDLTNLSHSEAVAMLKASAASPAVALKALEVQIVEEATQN

[25] = biological target: T10, SNTG1, Q9NSN8
T10 sequence (Q9NSN8 52-150, limits assumed, looked up): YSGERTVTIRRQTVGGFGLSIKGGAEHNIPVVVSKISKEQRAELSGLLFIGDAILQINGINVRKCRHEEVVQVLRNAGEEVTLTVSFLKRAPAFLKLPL

[26] = biological target: IL16_1, Q14005
IL16_1, Q14005, sequence (Q14005 210-306): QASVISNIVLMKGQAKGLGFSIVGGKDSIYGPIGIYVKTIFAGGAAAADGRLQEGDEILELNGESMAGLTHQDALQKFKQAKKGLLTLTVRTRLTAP

[27] = biological target: GRIP2_4, Q9C0E4
GRIP2_4, Q9C0E4, sequence (Q9C0E4 446-548): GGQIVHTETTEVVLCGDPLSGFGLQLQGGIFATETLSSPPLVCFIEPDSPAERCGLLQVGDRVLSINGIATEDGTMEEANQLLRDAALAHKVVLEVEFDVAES

[28] = biological target: Inadl_10, Q8NI35
Inadl_10, Q8NI35, sequence (Q8NI35 1673-1763): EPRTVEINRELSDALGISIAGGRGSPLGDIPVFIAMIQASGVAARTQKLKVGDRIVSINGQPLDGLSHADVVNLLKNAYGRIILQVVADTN

[29] = plain residues with an end cap or a label only (N-terminal biotin on a linker: ado-ado)
[30] = plain residues with an end cap or a label only (N-terminal biotin on a linker: (peg)3)

DLG4_2, P78352, sequence (P78352 155-259): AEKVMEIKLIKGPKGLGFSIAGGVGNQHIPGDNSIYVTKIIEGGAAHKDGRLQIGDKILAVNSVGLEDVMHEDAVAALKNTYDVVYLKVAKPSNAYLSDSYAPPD
SCRIB_3, Q14160, sequence (Q14160 999-1103): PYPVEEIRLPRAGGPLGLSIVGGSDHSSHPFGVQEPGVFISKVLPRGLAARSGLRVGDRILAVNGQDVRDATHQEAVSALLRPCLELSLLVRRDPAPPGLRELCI
GRIP2_3, Q9C0E4, sequence (Q9C0E4 238-339): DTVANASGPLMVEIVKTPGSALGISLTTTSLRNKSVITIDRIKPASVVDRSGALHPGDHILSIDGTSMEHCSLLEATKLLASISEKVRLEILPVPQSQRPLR

Binder: LKDDELKTKL [SLCO1A2, P46721]
- pKd [1, 29]: below the threshold
- pKd [2, 29]: 3.73
- pKd [3, 29]: below the threshold
- pKd [4, 29]: below the threshold
- pKd [5, 29]: below the threshold
- pKd [6, 29]: below the threshold
- pKd [7, 29]: below the threshold
- pKd [8, 29]: 3.91
- pKd [9, 29]: below the threshold
- pKd [10, 29]: below the threshold
- pKd [11, 29]: below the threshold
- pKd [12, 29]: 3.72
- pKd [13, 29]: 4.17
- pKd [14, 29]: below the threshold
- pKd [15, 29]: below the threshold
- pKd [16, 29]: 3.75
- pKd [17, 29]: below the threshold
- pKd [18, 29]: below the threshold
- pKd [19, 29]: below the threshold
- pKd [20, 29]: 4.87
- pKd [21, 29]: below the threshold
- pKd [22, 29]: below the threshold
- pKd [23, 29]: 4.55
- pKd [24, 29]: below the threshold
- pKd [25, 29]: below the threshold
- pKd [26, 29]: below the threshold
- pKd [27, 29]: below the threshold
- pKd [28, 29]: below the threshold

Binder: NTANRRTTPV [CACNG2, Q9Y698]
- pKd [1, 29]: below the threshold
- pKd [2, 29]: 3.92
- pKd [3, 29]: 4.89
- pKd [4, 29]: below the threshold
- pKd [5, 29]: 3.76
- pKd [6, 29]: below the threshold
- pKd [7, 29]: below the threshold
- pKd [8, 29]: 3.86
- pKd [9, 29]: below the threshold
- pKd [10, 29]: below the threshold
- pKd [11, 29]: below the threshold
- pKd [12, 29]: below the threshold
- pKd [13, 29]: below the threshold
- pKd [14, 29]: below the threshold
- pKd [15, 29]: 4.52
- pKd [16, 29]: below the threshold
- pKd [17, 29]: below the threshold
- pKd [18, 29]: below the threshold
- pKd [19, 29]: 4.23
- pKd [20, 29]: below the threshold
- pKd [21, 29]: 4.34
- pKd [22, 29]: below the threshold
- pKd [23, 29]: 3.89
- pKd [24, 29]: below the threshold
- pKd [25, 29]: below the threshold
- pKd [26, 29]: below the threshold
- pKd [27, 29]: below the threshold
- pKd [28, 29]: below the threshold

Binder: RRRRSQSRESQC [HBV-HBc, P03193]
- pKd [1, 30]: below the threshold
- pKd [2, 30]: 4.03
- pKd [3, 30]: 4.3
- pKd [4, 30]: below the threshold
- pKd [5, 30]: below the threshold
- pKd [6, 30]: below the threshold
- pKd [7, 30]: below the threshold
- pKd [8, 30]: below the threshold
- pKd [9, 30]: below the threshold
- pKd [10, 30]: below the threshold
- pKd [11, 30]: below the threshold
- pKd [12, 30]: below the threshold
- pKd [13, 30]: below the threshold
- pKd [14, 30]: below the threshold
- pKd [15, 30]: 4.7
- pKd [16, 30]: 3.89
- pKd [17, 30]: below the threshold
- pKd [18, 30]: below the threshold
- pKd [19, 30]: 3.89
- pKd [20, 30]: 4.44
- pKd [21, 30]: 4.23
- pKd [22, 30]: below the threshold
- pKd [23, 30]: below the threshold
- pKd [24, 30]: below the threshold
- pKd [25, 30]: below the threshold
- pKd [26, 30]: below the threshold
- pKd [27, 30]: below the threshold
- pKd [28, 30]: below the threshold

Binder: AEASVACSLC [PTGIR, P43119]
- pKd [1, 29]: below the threshold
- pKd [2, 29]: below the threshold
- pKd [3, 29]: below the threshold
- pKd [4, 29]: below the threshold
- pKd [5, 29]: below the threshold
- pKd [6, 29]: below the threshold
- pKd [7, 29]: below the threshold
- pKd [8, 29]: below the threshold
- pKd [9, 29]: below the threshold
- pKd [10, 29]: below the threshold
- pKd [11, 29]: below the threshold
- pKd [12, 29]: below the threshold
- pKd [13, 29]: below the threshold
- pKd [14, 29]: below the threshold
- pKd [15, 29]: 3.54
- pKd [16, 29]: 4.98
- pKd [17, 29]: below the threshold
- pKd [18, 29]: 3.72
- pKd [19, 29]: below the threshold
- pKd [20, 29]: 4.51
- pKd [21, 29]: below the threshold
- pKd [22, 29]: below the threshold
- pKd [23, 29]: 3.77
- pKd [24, 29]: below the threshold
- pKd [25, 29]: below the threshold
- pKd [26, 29]: below the threshold
- pKd [27, 29]: below the threshold
- pKd [28, 29]: below the threshold
